# Assays:
# HLA-B*07:02 = assay: IEDB peptide-MHC binding, purified MHC/competitive/fluorescence; filed as Kd, often an IC50 or EC50 that approximates it; ≥ and ≤ were set here for values at or beyond the usual limits of such assays
# HLA-B*51:01 [1] = assay: as above
# HLA-B*27:05 = assay: as above; details: source organism: Influenza A virus (A/swine/Hong Kong/81/1978(H3N2))
# HLA-B*51:01 [2] = assay: IEDB peptide-MHC binding, purified MHC/direct/fluorescence; filed as Kd, often an IC50 or EC50 that approximates it; ≥ and ≤ were set here for values at or beyond the usual limits of such assays; details: source organism: human gammaherpesvirus 4
# HLA-A*11:01 = assay: IEDB peptide-MHC binding, purified MHC/competitive/fluorescence; filed as Kd, often an IC50 or EC50 that approximates it; ≥ and ≤ were set here for values at or beyond the usual limits of such assays; details: source organism: Influenza A virus (A/swine/Scotland/410440/94(H1N2))
# HLA-A*02:03 [3] = assay: IEDB peptide-MHC binding, purified MHC/direct/fluorescence; filed as Kd, often an IC50 or EC50 that approximates it; ≥ and ≤ were set here for values at or beyond the usual limits of such assays; details: source organism: Influenza A virus (A/ferret/Maryland/P10-UMD/2008(H9N2))
# HLA-A*02:11 [4] = assay: as above; details: source organism: Influenza A virus (A/ferret/Maryland/P10-UMD/2008(H9N2))
# HLA-A*02:12 [5] = assay: as above; details: source organism: Influenza A virus (A/ferret/Maryland/P10-UMD/2008(H9N2))
# HLA-A*02:16 = assay: as above; details: source organism: Influenza A virus (A/ferret/Maryland/P10-UMD/2008(H9N2))
# HLA-A*02:19 [6] = assay: as above; details: source organism: Influenza A virus (A/ferret/Maryland/P10-UMD/2008(H9N2))
# HLA-A*03:01 [7] = assay: as above; details: source organism: Influenza A virus (A/ferret/Maryland/P10-UMD/2008(H9N2))
# HLA-A*23:01 = assay: as above; details: source organism: Influenza A virus (A/ferret/Maryland/P10-UMD/2008(H9N2))
# HLA-A*24:03 [8] = assay: as above; details: source organism: Influenza A virus (A/ferret/Maryland/P10-UMD/2008(H9N2))
# HLA-A*68:02 = assay: as above; details: source organism: Influenza A virus (A/ferret/Maryland/P10-UMD/2008(H9N2))
# HLA-A*02:01 = assay: IEDB peptide-MHC binding, purified MHC/competitive/fluorescence; filed as Kd, often an IC50 or EC50 that approximates it; ≥ and ≤ were set here for values at or beyond the usual limits of such assays
# HLA-A*26:01 = assay: as above
# HLA-A*69:01 = assay: as above; details: source organism: Influenza A virus (A/Victoria/1968(H3N2))
# HLA-B*15:01 = assay: as above
# HLA-B*27:03 = assay: as above
# HLA-B*39:01 = assay: as above
# HLA-B*46:01 = assay: as above
# HLA-B*57:01 = assay: as above
# HLA-A*02:03 [9] = assay: as above; details: source organism: Yersinia pestis Antiqua
# HLA-A*02:11 [10] = assay: as above; details: source organism: Yersinia pestis Antiqua
# HLA-A*02:12 [11] = assay: as above; details: source organism: Yersinia pestis Antiqua
# HLA-A*02:19 [12] = assay: as above; details: source organism: Yersinia pestis Antiqua
# HLA-A*03:01 [13] = assay: as above; details: source organism: Yersinia pestis Antiqua
# HLA-A*24:03 [14] = assay: as above; details: source organism: Yersinia pestis Antiqua
# HLA-A*29:02 = assay: as above; details: source organism: Yersinia pestis Antiqua
# HLA-B*18:01 = assay: as above; details: source organism: Yersinia pestis Antiqua
# HLA-C*06:02 = assay: IEDB peptide-MHC binding, purified MHC/direct/fluorescence; filed as Kd, often an IC50 or EC50 that approximates it; ≥ and ≤ were set here for values at or beyond the usual limits of such assays; details: source organism: Mycobacterium tuberculosis variant bovis BCG str. Pasteur 1173P2
# [15] = source organism: Escherichia coli str. K-12 substr. MG1655
# [16] = source organism: Influenza A virus (A/Victoria/1968(H3N2))
# [17] = source organism: Yersinia pestis Antiqua
sequence,measurement,setting,value
APTADVAKI,Kd,HLA-B*07:02; [15],0.868 µM
same,Kd,HLA-B*51:01 [1]; [15],≥ 20 µM
GRIQDLEKY,Kd,HLA-B*27:05,0.112 µM
HPVGEADYFEY,Kd,HLA-B*51:01 [2],≥ 20 µM
same,Kd,HLA-B*07:02; source organism: Human herpesvirus 4 strain B95-8,≥ 20 µM
KVYKTYFEK,Kd,HLA-A*11:01,0.0047 µM
NMDKAVKLY,Kd,HLA-A*02:03 [3],≥ 20 µM
same,Kd,HLA-A*02:11 [4],≥ 20 µM
same,Kd,HLA-A*02:12 [5],≥ 20 µM
same,Kd,HLA-A*02:16,≥ 20 µM
same,Kd,HLA-A*02:19 [6],≥ 20 µM
same,Kd,HLA-A*03:01 [7],≥ 20 µM
same,Kd,HLA-A*23:01,≥ 20 µM
same,Kd,HLA-A*24:03 [8],≥ 20 µM
same,Kd,HLA-A*68:02,≥ 20 µM
same,Kd,HLA-A*02:01; [16],≥ 20 µM
same,Kd,HLA-A*26:01; [16],≥ 20 µM
same,Kd,HLA-A*69:01,≥ 20 µM
same,Kd,HLA-B*15:01; [16],≥ 20 µM
same,Kd,HLA-B*27:03; [16],≥ 20 µM
same,Kd,HLA-B*39:01; [16],≥ 20 µM
same,Kd,HLA-B*46:01; [16],≥ 20 µM
same,Kd,HLA-B*51:01 [1]; [16],≥ 20 µM
same,Kd,HLA-B*57:01; [16],≥ 20 µM
PLTNQRYRV,Kd,HLA-A*02:01; [17],≥ 20 µM
same,Kd,HLA-A*02:03 [9],≥ 20 µM
same,Kd,HLA-A*02:11 [10],≥ 20 µM
same,Kd,HLA-A*02:12 [11],≥ 20 µM
same,Kd,HLA-A*02:19 [12],0.797 µM
same,Kd,HLA-A*03:01 [13],≥ 20 µM
same,Kd,HLA-A*24:03 [14],≥ 20 µM
same,Kd,HLA-A*26:01; [17],≥ 20 µM
same,Kd,HLA-A*29:02,≥ 20 µM
same,Kd,HLA-B*15:01; [17],≥ 20 µM
same,Kd,HLA-B*18:01,≥ 20 µM
same,Kd,HLA-B*27:03; [17],≥ 20 µM
same,Kd,HLA-B*39:01; [17],≥ 20 µM
same,Kd,HLA-B*46:01; [17],≥ 20 µM
same,Kd,HLA-B*51:01 [1]; [17],≥ 20 µM
same,Kd,HLA-B*57:01; [17],≥ 20 µM
RARLWPRSM,Kd,HLA-C*06:02,0.701 µM

# Reference: the Immune Epitope Database (IEDB)
